{"source": "paper PMC4869865", "about": "(Structure (London, England : 1993), 2010)", "binders": {"B1": {"name": "γ subunit (DnaX) of the E. coli clamp loader (natural protein, UniProt P06710-2 1-431, looked up)", "chain": "MSYQVLARKWRPQTFADVVGQEHVLTALANGLSLGRIHHAYLFSGTRGVGKTSIARLLAKGLNCETGITATPCGVCDNCREIEQGRFVDLIEIDAASRTKVEDTRDLLDNVQYAPARGRFKVYLIDEVHMLSRHSFNALLKTLEEPPEHVKFLLATTDPQKLPVTILSRCLQFHLKALDVEQIRHQLEHILNEEHIAHEPRALQLLARAAEGSLRDALSLTDQAIASGDGQVSTQAVSAMLGTLDDDQALSLVEAMVEANGERVMALINEAAARGIEWEALLVEMLGLLHRIAMVQLSPAALGNDMAAIELRMRELARTIPPTDIQLYYQTLLIGRKELPYAPDRRMGVEMTLLRALAFHPRMPLPEPEVPRQSFAPVAPTAVMTPTQVPPQPQSAPQQAPTVPLPETTSQVLAARQQLQRVQGATKAKKE"}}, "test_in_all_cases": "native MS", "key": {"[1]": {"target": "the molecule itself"}, "[2]": {"target": "the molecule itself", "remark": "listed apart in the source"}, "[3]": {"target": "δδ′ subcomplex (E. coli, UniProt P28630 1-343; P28631 1-334)"}}, "note": "Like-named read-outs stand apart in the source and are kept apart here."}
{"binder": "B1", "values": [{"measurement": "stoichiometry N", "setting": "[1]", "result": 3}, {"measurement": "stoichiometry N", "setting": "[2]", "result": 4}, {"measurement": "binding result", "setting": "[3]", "result": "binds"}]}
